“Also recorded” adds a separate entry of the source. Values belong to the molecule of their own block, whether it stands above or below them.
How the values were obtained:
bone marrow cells [1] = experiment: Cell migration assay (Transwell); type: cell-based, mouse
Method: FIGS. 6A-6D. CD45 positive cell migration was stimulated by HIMF and inhibited by BTK inhibitor. Bone marrow cells were cultured on cover glass in 12 well plates as described in FIG. 5A-5B. The cells were then treated with BSA (FIG. 6A) or HIMF (FIG. 6B and FIG. 6C) for 4 days and fixed with pre-cooled methanol before immunocytochemistry with the indicated first antibodies. DAPI staining was used to show the nuclei. […] 5×10^5 bone marrow cells in 2% fetal bovine serum DMEM culture medium were transferred to each transwell in the presence of 50 nM BSA, HIMF, or HIMF plus 25 μM LFM-A13, respectively. The cells were cultured for 6 hours, fixed in pre-cooled methanol and stained by Coomassie Blue solution. The cells growing on the surface of the membrane were removed after staining. Bone marrow cell migration was induced by HIMF and this induction was inhibited by BTK inhibitor LFM-A13 (FIG. 6D).
Cell migration assay. Bone marrow cells were detached with trypsin-EDTA, washed in serum-free medium, and then counted and adjusted to 10^6 cells/ml. […]
BTK stimulated the migration of bone marrow cells. […] Cell migration was further determined by partial trypsin digestion culture, leaving the cells to grow in colonies on a cover glass.

BTK [2] = molecular target: T1, BTK (Mus musculus, UniProt P35991); experiment: Protein phosphorylation assay (BTK Y223) in bone marrow cells; type: cell-based; conditions: 50 nM HIMF, minutes
T1 construct: incubated with bone marrow cell lysate or hypoxia tissue homogenate for three hours; endogenous in cells; host or cells: lysate of cultured mouse bone marrow cells; in the second result, homogenate of mouse hind limb hypoxic tissue
Method: (§1) FIGS. 4A-4C. BTK self-phosphorylation in response to the treatment of HIMF. Three plates of primary cultured bone marrow cells that were passed from the same plate of cells were cultured to confluence and then treated with HIMF (5 minutes and 30 minutes), or without HIMF. The cell lysates were used for the Western blot. The membrane was first probed by anti-BTK phosphorylation (Y223) antibody and then was probed by anti-BTK antibody after stripping (FIG. 4A). Five plates of primary cultured bone marrow cells that were passed from same plates of cells were cultured to confluence and then treated with HIMF (2.5, 5, 10 and 20 minutes respectively) or without HIMF. The cell lysates were used for the Western blot. The membrane was first detected by anti-BTK phosphorylation (Y223) antibody and then by anti-tubulin antibody (FIG. 4B). The same samples were used for the detection of fyn phosphorylation (FIG. 4C). Phosphorylation of Y416 upregulates enzyme activity. Phosphorylation of Y528 negatively regulates enzyme activity.
(§2) Protein phosphorylation assays. […] The supernatants of the samples were quantified for protein concentration and subjected to electrophoresis on a 4-15% SDS-polyacrylamide gel (Bio-Rad). […]

Fyn = Fyn phosphorylation in bone marrow cells; type: cell-based, mouse; conditions: bone marrow cells stimulated with HIMF
Method: as §1, §2

BTK [3] = molecular target: T1, BTK; experiment: BTK redistribution in bone marrow cells (immunofluorescence); type: cell-based; conditions: 50 nM HIMF, 5 minutes
Method: FIGS. 3A-3B. BTK redistribution in response to the stimulation of HIMF. Primary cultured bone marrow. Bone marrow cells were cultured on cover glass and then treated with 50 nM BSA (FIG. 3A) or HIMF (FIG. 3B) for five minutes. Cells were fixed by pre-cooled methanol before indirect immunofluorescence. BTK or FYN, a binding partner for BTK, was redistributed in bone marrow cells after the treatment of HIMF.
Immunofluorescence microscopy. Bone marrow or COS-7 cells were cultured on coverslips in DMEM containing 10% FBS and fixed in pre-cooled methanol for 5 minutes. The cells were then permeabilized with 0.2% Triton X-100 in PBS and blocked with 0.5% bovine serum albumin in PBS followed by incubation with the indicated antibodies. FITC-donkey anti-rabbit IgG and Rhodamine-donkey anti-mouse IgG were used as second antibodies. For transfection experiments, cells were cultured overnight and transfected with indicated constructs in serum-free medium for four hours and changed into DMEM containing 10% FBS overnight. Cells were fixed and stained as above. A 510 confocal microscope was used for the imaging.
Translocation of BTK in bone marrow cells in response to the stimulation of HIMF. […] The activation of BTK family tyrosine kinases will result in their stimulated translocation to membrane fractions (24). […]

bone marrow cells [4] = experiment: Cell migration out of colony (partial trypsin digestion culture); type: cell-based, mouse; conditions: 50 nM HIMF, 2% FBS DMEM, four days
Method: FIGS. 5A-5B. HIMF stimulated bone marrow cell migration. Bone marrow cells were partially digested by trypsin-EDTA solution, washed by PBS and then sucked up and transferred to twelve well plates using a 1000 μl tip. The cells were cultured in 2% fetal bovine serum DMEM with 50 nM BSA or HIMF for four days. More cells migrated out of the original cell colony in the presence of HIMF than those in BSA (FIG. 5A). 5×10^5 bone marrow cells were cultured in transwell plates in the presence of 50 nM BSA or HIMF. The cells were cultured overnight, fixed in pre-cooled methanol and stained by Coomassie Blue solution. The cells growing on the surface of the membrane were removed after staining (FIG. 5B). A Nikon Eclipse microscope was used for the imaging.
BTK stimulated the migration of bone marrow cells. To test whether HIMF stimulates the migration of bone marrow cells, bone marrow cells were cultured in transwell plates in the presence of […] BSA or HIMF. The cells were cultured overnight, fixed in methanol and stained by Coomassie Blue solution. Cells growing on the surface of the membrane were removed by cotton tipped applicators before imaging. […] Cell migration was further determined by partial trypsin digestion culture, leaving the cells to grow in colonies on a cover glass.

[5] = test system: hindlimb ischemia tissues; experiment: Mouse hindlimb ischemic model, agarose gel implant; type: in vivo; conditions: 100 nM HIMF in 2% agarose gel implanted, two weeks, versus BSA gel
Method: FIGS. 7A-7B. […] Mouse hind limb ischemia model was established and agarose gel containing 100 nM BSA or 100 nM HIMF (gels were cut into 2×5×8 mm pieces) were buried subcutaneously at the sites of ischemia. Two weeks later, the ischemic tissues were collected for immunocytochemistry. The tissue treated by HIMF (FIG. 7B) was shown increasing in CD34 positive cells comparing to that of BSA treated tissue (FIG. 7A).
Mouse hindlimb ischemic model. Animals were subjected to left femoral artery ligation and excision to create unilateral hind limb ischemia. For each animal, 25 mg/kg ketamine plus 10 mg/kg xylazine was injected subcutaneously. Skin incisions were performed at the middle portion of the left hind limb overlying the femoral artery. The femoral artery was gently isolated. First the proximal portion and then the distal portion of the femoral artery were ligated, and then other arterial branches as well as veins were dissected free and excised. The overlying skin was closed using two surgical staples. Tissue in the hypoxia area was removed and homogenized in TBST buffer two weeks after the operation.
HIMF promoted angiogenesis in hypoxic tissues. Hypoxia can induce pulmonary artery adventitial remodeling and neovascularization. […]

BTK [6] = molecular target: T1, BTK; experiment: GST pull-down assay; type: binding
Method: FIGS. 1A-1B. BTK is a HIMF-binding molecule. GST-HIMF fusion protein and GST were incubated with glutathione-sepharose beads and then incubated with bone marrow cell lysate respectively in TBST buffer at 4° C. for three hours. The beads were washed five times by TBST and loading buffer was added to the samples. After electrophoresis, the gel was stained by Coomassie Blue. […] GST-HIMF and GST were first bonded to glutathione sepharose and then incubated with the lysate of bone marrow cells (left) or homogenate of ischemic tissue (right) at 4° C. for three hours and then washed by TBST solution three times. After SDS-PAGE and transfer to membrane, the samples were detected by anti-BTK and anti-GST antibodies (FIG. 1B).
GST pull-down assay. Bone marrow cells were cultured in ten 150×25 mm plates until confluence and collected for lysate using TBST buffer. Lysate from ten plates of bone marrow cells was used for HIMF-binding partner screening assay. Hypoxia tissue homogenate was prepared as described above. BL21 bacterial lysates for GST and GST-HIMF were first incubated with glutathione agarose in 0.1% TBST buffer for three hours and then washed three times by 0.1% TBST buffer. The GST and GST-HIMF binding glutathione agaroses were incubated with bone marrow cell lysate or hypoxia tissue homogenate for three hours and then washed 3-5 times before SDS-PAGE.

T1 sequence (P35991 whole entry): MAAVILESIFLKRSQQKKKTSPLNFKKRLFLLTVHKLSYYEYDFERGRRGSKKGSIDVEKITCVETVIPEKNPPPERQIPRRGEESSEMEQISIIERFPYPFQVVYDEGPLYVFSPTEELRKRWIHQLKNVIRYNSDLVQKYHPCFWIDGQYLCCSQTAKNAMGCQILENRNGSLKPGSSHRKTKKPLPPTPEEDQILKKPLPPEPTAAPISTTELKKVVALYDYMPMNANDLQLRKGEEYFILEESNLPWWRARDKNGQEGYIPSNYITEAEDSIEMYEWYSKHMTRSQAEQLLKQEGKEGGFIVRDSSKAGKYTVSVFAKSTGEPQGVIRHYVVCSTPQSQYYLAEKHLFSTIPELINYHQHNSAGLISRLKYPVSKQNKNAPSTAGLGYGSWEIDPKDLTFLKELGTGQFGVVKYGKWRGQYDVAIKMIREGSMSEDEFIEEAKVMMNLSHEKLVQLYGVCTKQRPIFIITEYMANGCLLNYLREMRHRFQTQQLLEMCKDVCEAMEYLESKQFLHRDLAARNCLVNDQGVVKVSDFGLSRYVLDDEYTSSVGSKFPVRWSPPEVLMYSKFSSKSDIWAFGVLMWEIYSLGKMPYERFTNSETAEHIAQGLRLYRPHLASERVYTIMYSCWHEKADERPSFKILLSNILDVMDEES

Molecule: C/C(O)=C(\C#N)C(=O)Nc1cc(Br)ccc1Br [LFM-A13, reference compound]
Inhibition of HIMF-induced bone marrow cell migration (bone marrow cells [1]; 25 μM LFM-A13 plus 50 nM HIMF, transwell, 6 hours): inhibited; also recorded: completely blocked

B1: HIMF: Hypoxia-induced mitogenic factor protein (Flag-tagged mouse HIMF) applied to cells and tissue (protein)
chain: DETIEIIVENKVKELLANPANYPSTVTKTLSCTSVKTMNRWASCPAGMTATGCACGFACGSWEIQSGDTCNCLCLLVDWTTARCCQLS
Bone marrow cell migration (transwell) versus BSA (bone marrow cells [1]; 50 nM HIMF, overnight): markedly promoted; also recorded: More cells migrated out of the chamber
BTK self-phosphorylation (Y223) (BTK [2]): stimulate the self-phosphorylation of BTK
Fyn activity (phosphorylation Y416/Y528) (Fyn): not changed in activity
BTK translocation in bone marrow cells (BTK [3]): rapidly induced recruitment of BTK to the leading edge of cells
Bone marrow cell migration out of the colony versus BSA (bone marrow cells [4]): more bone marrow cells were stimulated to migrate out of the colony
Angiogenesis in hindlimb ischemia tissues [5]: stimulated angiogenesis
CD34 positive cells in ischemic tissue [5]: increased

Pull-down of BTK from bone marrow cell lysate (BTK [6]; bone marrow cell lysate, GST control did not): pulled down BTK
Binding of BTK from hind limb hypoxic tissue homogenate (BTK [6]; homogenate of mouse hind limb hypoxic tissue, not to GST): shown to bind
B2: GST-HIMF: GST fusion protein of mouse HIMF expressed in BL21 cells (protein)
chain: B1 chain
modifications: left off: a dimerising Fc or GST
notes: GST fusion protein of mouse HIMF expressed in BL21 cells

Reference: patent publication US8343491B2, “Anti-HIMF antibodies to treat lung diseases” (The Johns Hopkins University, priority 2006, dated 2013)
